Target: IGF2 (Homo sapiens, UniProt P01344)
Sequence (P01344 25-91): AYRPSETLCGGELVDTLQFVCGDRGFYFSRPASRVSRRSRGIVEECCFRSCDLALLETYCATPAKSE

B1: IGF2R domain 11 (protein)
chain: MKSNEHDDCQVTNPSTGHLFDLSSLSGRAGFTAAYSKSGVVYMSICGENENCPPGVGACFGQTRISVGKANKRLRYVDQVLQLVYKDGSPCPSKSGLSYKSVISFVCRPEARPTNRPMLISLDKQTCTLFFSWHTPLACEQAT
For B1, which Kd is on record?
Its Kd is 15 nM.

Reference: PMC4658703 (2012)
